Data from US10876098B2, “Polynucleotide, host cell and a method to recombinantly produce the protein encoded by said polynucleotide having peroxygenative activity” (CONSEJO SUPERIOR DE INVESTIGACIONES CIENTIFICAS (CSIC), priority 2015, dated 2020).

Tests used:
[1] = substrate: CC(C)NCC(O)COc1cccc2ccccc12; test: purified protein, by the assay type
[2] = substrate: CCn1c(=NN=c2sc3cc(S(=O)(=O)O)ccc3n2CC)sc2cc(S(=O)(=O)O)ccc21; test: purified protein, by the assay type; details: other: 100 mM sodium phosphate/citrate pH 4.0, 2 mM H2O2 (ABTS); pH 4.0
[3] = substrate: OO; test: purified protein, by the assay type; details: other: H2O2, benzyl alcohol as substrate at saturation, pH 7.0
Optimum pH for DMP = format: biochemical
Optimum pH for ABTS = format: biochemical
[4] = Isoelectric point by two-dimensional electrophoresis; format: physicochemical
Experimental: The analyses were performed using an Autoflex III MALDI-TOF-TOF unit with smartbeam laser (Bruker Daltonics). The samples were evaluated in positive mode. The method was calibrated using BSA with standard, thereby covering a range of 15,000 to 70,000 Da. In order to determine the isoelectric point of the UPO variants, 8 μg of pure enzyme were subjected to two-dimensional electrophoresis. These experiments were carried out at the Proteomic and Genomic Service of the Biological Research Centre (CIB-CSIC, Spain).

[5] = Optimum pH for naphthalene; format: biochemical
[6] = Thermostability assay (T50), culture supernatants, residual activity with ABTS; format: physicochemical; details: culture supernatants; temperature at which the enzyme retains 50% of its activity after 10 minutes of incubation
Experimental: An individual S. cerevisiae colony was selected with the corresponding clone (grown in a SC drop-out minimal medium plate: 100 mL of 6.7% yeast nitrogen base, 100 mL of 19.2 g/L uracil-free amino acid supplement, 100 mL of 20% glucose, 1 mL of 25 g/L chloramphenicol and ddH2O up to 1,000 mL) was inoculated in 2 mL of selective minimal medium (as in the SC plate medium, but with 20 g of bacto agar and rafinose instead of galactose) and was incubated for 48 hour at 30° C. and 220 RPM. An aliquot of this culture was taken such that, upon inoculating it in 5 mL of new minimal medium, optical density at 600 nm would have a value of 0.25 (optical density, OD600=0.25). This starter was incubated until completing two full growth cycles (between 6 and 8 hours), at which time 1 mL of cells were taken to inoculate 9 mL of expression medium in a 100 mL flask (OD600=0.1). This culture of each clone was incubated for 72 hours at 25° C. and 220 RPM (at peak UPO activity; OD600=25-30), the cells were separated by centrifugation (10 minutes at 4,500 RPM and 4° C.) and supernatant was filtered (using a glass and nitrocellulose filter with a pore size of 0.45 μm). Appropriate dilutions of the supernatants were prepared so that aliquots of 20 μL would give rise to a linear response in kinetic mode. 50 μL of supernatant were used for each point in a temperature gradient created by means of thermocyclator, from 30 to 80° C. After incubating for 10 minutes, the aliquots were cooled in ice for 10 minute and tempered at room temperature for 5 minutes. […] The thermostability values were calculated in accordance with the ratio between the residual activities incubated at different temperatures and the value of initial activity at room temperature. The value of T50 was determined as the value of the temperature at which the protein loses 50% of it initial activity after incubating for 10 minutes.
An individual S. cerevisiae colony was selected with the corresponding clone (grown on a SC drop-out minimal medium plate: 100 mL of 6.7% yeast nitrogen base, 100 mL of 19.2 g/L uracil-free amino acid supplement, 100 mL of 20% glucose, 1 mL of 25 g/L chloramphenicol and ddH2O up to 1,000 mL), was inoculated in 3 mL of selective minimal medium (like the SC plate medium, but with 20 g of bacto agar and rafinose instead of galactose) and incubated for 48 hours at 30° C. and 220 RPM. […] The thermostability values were calculated in accordance with the ratio between the residual activities incubated at different temperatures and the value of initial activity at room temperature. The value of T50 was determined as as the temperature value at which the protein loses 50% of its initial activity after incubating for […].

[7] = Naphthalene transformation reaction analysed by HPLC-PDA; format: biochemical
Experimental: A) Products formed after 15 minutes of reaction stopped with 20 μL of HCl 37% (PaDa-I, black bars; JaWa, grey bars). […] C) and D) Monitoring of the reaction for 270 minutes (without adding HCl) for the PaDa-I (C) and JaWa (D) mutants.
The reactions were analysed by means of chromatography in reverse phase (HPLC). The equipment is composed by a tertiary pump (Varian-Agilent Technologies, USA) coupled to an autosampler (Merck Millipore, MA, USA); an ACE C18 PFP column was used for separation (pentafluorophenyl, 15 cm×4.6 cm) at 45° C. and detection was performed using a photodiode detector (PDA) (Varian-Agilent Technologies, USA). The mobile phase selected was 70% methanol and 30% ddH2O (in both cases with 0.1% of acetic acid) at a flow rate of 0.8 mL/min. The reaction was quantified at 268 nm (based on standard HPLCs). […] For long reaction times, the conditions used were those described earlier but without stopping the reaction with HCl. A sample of 10 μL was injected and analysed at different reaction times (from 1 to 270 minutes).

[8] = Total turnover number (TTN) for synthesis of 5′-hydroxypropranolol from propranolol; format: biochemical; details: 0.03 μM enzyme, propranolol, 2 mM H2O2 added every 10 minutes
Experimental: FIG. 15 Calculation of the total turnover number (TTN) of AaeUPO and SoLo.
(§1) The reactions were analysed by means of chromatography in reverse phase (HPLC). The equipment was composed of a tertiary pump (Varian-Agilent Technologies, USA) coupled to an autosampler (Merck Millipore, MA, USA); for the separation, a Zorbax Eclipse plus C18 column (15 cm×4.6 cm) at 40° C. was used and the detection was performed using a photodiode detector (PDA) (Varian, Agilent Technologies, USA). The mobile phase selected was a gradient from 10% methanol and 90% ddH2O (in both cases with 0.1% of acetic acid) up to 90% methanol and 10% ddH2O at a flow rate of 0.8 mL/min. The reaction was quantified at 280 nm (based on HPLC standards). […] The standard deviations were less than 5% in all cases.

[9] = Turnover with 5′-hydroxypropranolol as substrate, HPLC; format: biochemical; details: 0.03 μM enzyme, 0.4 mM 5′-hydroxypropranolol, 2 mM H2O2, absence of ascorbic acid
Experimental: FIG. 14 Turnover rates of AaeUPO, JaWa and SoLo. […] The disappearance of the product 5′-hydroxypropranolol can be observed due to the formation of its corresponding quinone by means of the peroxidase activity of the enzyme.
as §1

[10] = other: 100 mM potassium phosphate pH 7.0, 2 mM H2O2 (propranolol)
[11] = other: 100 mM potassium phosphate pH 7.0, 2 mM H2O2 (DMP, propranolol)
[12] = 15 minutes of reaction stopped with HCl, 6.6 nM enzyme, 1 mM naphthalene, 1 mM H2O2

Row | Molecule | Km [1, 10] | kcat [1, 10] | kcat/Km [1, 10] | Km [3] | kcat [3] | kcat/Km [3] | Optimum pH for DMP (Optimum pH for DMP) | Optimum pH for ABTS (Optimum pH for ABTS) | pI [4] | Optimum pH for naphthalene [5] | also measured
1 | Agrocybe aegerita unspecific peroxygenase AaeUPO1 (UPO, EC 1.11.2.1), wild type, SEQ ID NO: 2 (SEQ ID NO: 4 with wild-type signal peptide) (Cyclocybe aegerita) (protein) EPGLPPGPLENSSAKLVNDEAHPWKPLRPGDIRGPCPGLNTLASHGYLPRNGVATPVQIINAVQEGLNFDNQAAVFATYAAHLVDGNLITDLLSIGRKTRLTGPDPPPPASVGGLNEHGTFEGDASMTRGDAFFGNNHDFNETLFEQLVDYSNRFGGGKYNLTVAGELRFKRIQDSIATNPNFSFVDFRFFTAYGETTFPANLFVDGRRDDGQLDMDAARSFFQFSRMPDDFFRAPSPRSGTGVEVVIQAHPMQPGRNVGKINSYTVDPTSSDFSTPCLMYEKFVNITVKSLYPNPTVQLRKALNTNLDFFFQGVAAGCTQVFPYGRD | 2,239 ± 333 μM | 150 ± 12 s⁻¹ | 67000 ± 4800 M⁻¹ s⁻¹ | 1,370 ± 162 μM | 290 s⁻¹ | 210000 M⁻¹ s⁻¹ |  |  |  |  | Km [2]: 25-0 ± 2.5 μM; kcat [2]: 221 s⁻¹; kcat/Km [2]: 8.8e+06 M⁻¹ s⁻¹
2 | Agrocybe aegerita peroxygenase AaeUPO1 variant JaWa (PaDa-I + G241D, R257K: V57A, L67F, V75I, G241D, I248V, R257K, F311L), SEQ ID NO: 24 (Cyclocybe aegerita; … (protein) EPGLPPGPLENSSAKLVNDEAHPWKPLRPGDIRGPCPGLNTLASHGYLPRNGVATPAQIINAVQEGFNFDNQAAIFATYAAHLVDGNLITDLLSIGRKTRLTGPDPPPPASVGGLNEHGTFEGDASMTRGDAFFGNNHDFNETLFEQLVDYSNRFGGGKYNLTVAGELRFKRIQDSIATNPNFSFVDFRFFTAYGETTFPANLFVDGRRDDGQLDMDAARSFFQFSRMPDDFFRAPSPRSDTGVEVVVQAHPMQPGKNVGKINSYTVDPTSSDFSTPCLMYEKFVNITVKSLYPNPTVQLRKALNTNLDFLFQGVAAGCTQVFPYGRD |  |  |  |  |  |  |  |  |  |  | Km [1, 11]: 244 ± 92 µM; kcat [1, 11]: 765 ± 76 s⁻¹; kcat/Km [1, 11]: 3.1e+06 ± 90000 M⁻¹ s⁻¹
3 | Agrocybe aegerita peroxygenase AaeUPO1 variant SoLo (JaWa + F191S: V57A, L67F, V75I, F191S, G241D, I248V, R257K, F311L), SEQ ID NO: 42 (Cyclocybe aegerita; … (protein) EPGLPPGPLENSSAKLVNDEAHPWKPLRPGDIRGPCPGLNTLASHGYLPRNGVATPAQIINAVQEGFNFDNQAAIFATYAAHLVDGNLITDLLSIGRKTRLTGPDPPPPASVGGLNEHGTFEGDASMTRGDAFFGNNHDFNETLFEQLVDYSNRFGGGKYNLTVAGELRFKRIQDSIATNPNFSFVDFRFSTAYGETTFPANLFVDGRRDDGQLDMDAARSFFQFSRMPDDFFRAPSPRSDTGVEVVVQAHPMQPGKNVGKINSYTVDPTSSDFSTPCLMYEKFVNITVKSLYPNPTVQLRKALNTNLDFLFQGVAAGCTQVFPYGRD | 391 ± 97 µM | 497 ± 35 s⁻¹ | 1.3e+06 ± 20000 M⁻¹ s⁻¹ | 1,430 ± 153 μM | 446 s⁻¹ | 310000 ± 18000 M⁻¹ s⁻¹ |  |  |  |  | 
4 | PaDa-I: AaeUPO1 mutant with L67F, I248V, F311L, V75I, V57A and evolved signal peptide, SEQ ID NO: 18; previously published parental (protein) MKYFPLFPTLVYAVGVVAFPDYASLAGLSQQELDAIIPTLEAREPGLPPGPLENSSAKLVNDEAHPWKPLRPGDIRGPCPGLNTLASHGYLPRNGVATPAQIINAVQEGFNFDNQAAIFATYAAHLVDGNLITDLLSIGRKTRLTGPDPPPPASVGGLNEHGTFEGDASMTRGDAFFGNNHDFNETLFEQLVDYSNRFGGGKYNLTVAGELRFKRIQDSIATNPNFSFVDFRFFTAYGETTFPANLFVDGRRDDGQLDMDAARSFFQFSRMPDDFFRAPSPRSGTGVEVVVQAHPMQPGRNVGKINSYTVDPTSSDFSTPCLMYEKFVNITVKSLYPNPTVQLRKALNTNLDFLFQGVAAGCTQVFPYGRD |  |  |  |  |  |  | 6.0 | 4.0 | 5.5 | 6.0 | Thermal stability, T50 [6]: 57.6 °C; regioselectivity, 1-naphthol [7, 12]: 92%; regioselectivity, 2-naphthol [7, 12]: 8%; time at which formation of the epoxide intermediary reached its maximum ([7]; 270 minute reaction at pH 7.0): ~40 min; production of 1-naphthol ([7]; 270 minutes at pH 7.0 without stopping the reaction): 0.14 mM; total turnover numbers (TTN), 1-naphthol ([7]; calculated using the production value of 1-naphthol after 270 minutes): 20,000 μmoles of product/μmoles of en; regioselectivity against 1-naphthol ([7]; long reaction times, 270 minutes at pH 7.0 without stopping the reaction): 97%
5 | AaeUPO1: unspecific peroxygenase UPO (E.C. 1.11.2.1) of Agrocybe aegerita, wild type, SEQ ID NO: 2 / 4 (protein, listed as Agrocybe aegerita) MKYFPLFPTLVYAVGVVAFPDYASLAGLSQQELDAIIPTLEAREPGLPPGPLENSSAKLVNDEAHPWKPLRPGDIRGPCPGLNTLASHGYLPRNGVATPVQIINAVQEGLNFDNQAAVFATYAAHLVDGNLITDLLSIGRKTRLTGPDPPPPASVGGLNEHGTFEGDASMTRGDAFFGNNHDFNETLFEQLVDYSNRFGGGKYNLTVAGELRFKRIQDSIATNPNFSFVDFRFFTAYGETTFPANLFVDGRRDDGQLDMDAARSFFQFSRMPDDFFRAPSPRSGTGVEVVIQAHPMQPGRNVGKINSYTVDPTSSDFSTPCLMYEKFVNITVKSLYPNPTVQLRKALNTNLDFFFQGVAAGCTQVFPYGRD |  |  |  |  |  |  | 7.0 | 4.0 | 4.9-5.7 | 6.5 | TTNs, With ascorbic acid ([8]; 4 mM ascorbic acid): 14,000; TTNs, Without ascorbic acid ([8]; absence of ascorbic acid): 3,000; 5′-hydroxypropranolol maintained without oxidising [9]: oxidise practically the entire product
